To fix the notation:
B1: recombinant human RAD51 [human] / His6-Thioredoxin-RAD54-Flag (recombinant human RAD54, wild type) [human] (parent complex)
chain 1: MAMQMQLEANADTSVEEESFGPQPISRLEQCGINANDVKKLEEAGFHTVEAVAYAPKKELINIKGISEAKADKILAEAAKLVPMGFTTATEFHQRRSEIIQITTGSKELDKLLQGGIETGSITEMFGEFRTGKTQICHTLAVTCQLPIDRGGGEGKAMYIDTEGTFRPERLLAVAERYGLSGSDVLDNVAYARAFNTDHQTQLLYQASAMMVESRYALLIVDSATALYRTDYSGRGELSARQMHLARFLRMLLRLADEFGVAVVITNQVVAQVDGAAMFAADPKKPIGGNIIAHASTTRLYLRKGRGETRICKIYDSPCLPEAEAMFAINADGVGDAKD
chain 2: MRRSLAPSQLAKRKPEGRSCDDEDWQPGLVTPRKRKSSSETQIQECFLSPFRKPLSQLTNQPPCLDSSQHEAFIRSILSKPFKVPIPNYQGPLGSRALGLKRAGVRRALHDPLEKDALVLYEPPPLSAHDQLKLDKEKLPVHVVVDPILSKVLRPHQREGVKFLWECVTSRRIPGSHGCIMADEMGLGKTLQCITLMWTLLRQSPECKPEIDKAVVVSPSSLVKNWYNEVGKWLGGRIQPLAIDGGSKDEIDQKLEGFMNQRGARVSSPILIISYETFRLHVGVLQKGSVGLVICDEGHRLKNSENQTYQALDSLNTSRRVLISGTPIQNDLLEYFSLVHFVNSGILGTAHEFKKHFELPILKGRDAAASEADRQLGEERLRELTSIVNRCLIRRTSDILSKYLPVKIEQVVCCRLTPLQTELYKRFLRQAKPAEELLEGKMSVSSLSSITSLKKLCNHPALIYDKCVEEEDGFVGALDLFPPGYSSKALEPQLSGKMLVLDYILAVTRSRSSDKVVLVSNYTQTLDLFEKLCRARRYLYVRLDGTMSIKKRAKVVERFNSPSSPDFVFMLSSKAGGCGLNLIGANRLVMFDPDWNPANDEQAMARVWRDGQKKTCYIYRLLSAGTIEEKIFQRQSHKKALSSCVVDEEQDVERHFSLGELKELFILDEASLSDTHDRLHCRRCVNSRQIRPPPDGSDCTSDLAGWNHCTDKWGLRDEVLQAAWDAASTAITFVFHQRSHEEQRGLR

Variants of B1 are the subject of the first experiment. As to the kind of experiment: pull-down (silver-stained gel, quantified); read off a plot.
Turning to chain 2 T41D, chain 2 T59D, the ratio to parent is around 0.41.

With chain 2 T41D, chain 2 T59D, chain 2 T700D, the ratio to parent was around 0.27.

In the case of chain 2 T700D, the ratio to parent was around 1.3.

With chain 2 T59D, the ratio to parent was around 0.58.

Regarding chain 2 T41D, the ratio to parent was around 0.25.

In the next experiment the parent is B1. Described as above. The source holds these as a separate data set.
For chain 2 T700D, the ratio to parent was around 1.2.

Source of the values: paper PMC10484734, “TLK1-mediated RAD54 phosphorylation spatio-temporally regulates Homologous Recombination Repair” (Nucleic Acids Research, 2023).
